Data from patent US11530263B2, “IL-18 binding protein (IL-18BP) in inflammatory diseases” (AB2 BIO SA, priority 2013, dated 2022).
Positions count from the first letter of the chain named.

T1: IL-18 previously complexed to monoclonal antibody (Homo sapiens, UniProt Q14116)
T1 sequence (Q14116 37-193): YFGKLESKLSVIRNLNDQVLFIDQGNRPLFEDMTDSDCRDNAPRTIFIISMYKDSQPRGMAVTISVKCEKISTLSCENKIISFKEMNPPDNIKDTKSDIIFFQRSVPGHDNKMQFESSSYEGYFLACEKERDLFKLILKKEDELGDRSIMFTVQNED

T2: human interleukin-18 (Homo sapiens, UniProt Q14116)
T2 sequence (Q14116 37-193): T1 sequence (Q14116 37-193)

T3: IL-18 previously complexed to IL-18BP (Homo sapiens, UniProt Q14116)
T3 sequence (Q14116 37-193): T1 sequence (Q14116 37-193)
T3 sequence (O95998 31-194 partner): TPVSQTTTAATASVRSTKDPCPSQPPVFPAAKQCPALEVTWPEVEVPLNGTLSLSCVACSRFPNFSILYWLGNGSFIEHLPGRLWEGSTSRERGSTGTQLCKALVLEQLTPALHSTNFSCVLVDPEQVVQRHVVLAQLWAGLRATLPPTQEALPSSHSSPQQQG

B1: 132H4: monoclonal anti-IL-18 antibody; VH SEQ ID NO: 23, VK SEQ ID NO: 24 (antibody, V domains shown)
VH: EVKLVESGGGLVKPGGSLKLSCAASGFTFSNYAMSWVRQNPAKRLEWVATISSGGANIYYPDSVKGRFIISRDNARNTLYLQMSSLRSEDTAMYYCARGDYFNHFWFAYWGQGTLVTVSA
VL: DVLMTQTPLSLPVSLGDQASISCRSSQSIVHSNGNTYLEWYLQKPGQSPKFLIYKVSNRFSGVPDRFSGSGSGTDFTLKINRVEAEDLGIYYCFQGSHVPWTFGGGTKLEIK
modifications: Antibody 132H4 VH sequence; Antibody 132H4 VK sequence
B2: 107C6: monoclonal anti-IL-18 antibody; VH SEQ ID NO: 9, VK SEQ ID NO: 10 (antibody, V domains shown)
VH: QIQLVQSGPELKKPGETVKLSCRASGYTFTNYGMNWVKQAPGKGLKWMGWINTYSGVPTYADDFKGQFAFSLETSAATAFLQINNLKDEDTATYFCAREGYSTTRSMDYWGQGTSVTVSS
VL: DIVMSQSPSSLAVSAGEKVTMSCKSSQSLLDSRTRKNYLVWYQQKPGQSPKLLIYWASTRGSGVPDRFTGSGSGTDFTLTISSVQAEDLAVYYCKQSYNLRTFGGGTKLEIK
modifications: Antibody 107C6 VH sequence; Antibody 107C6 VK sequence
B3: 108F8: monoclonal anti-IL-18 antibody; VH SEQ ID NO: 11, VK SEQ ID NO: 12 (antibody, V domains shown)
VH: B2 VH with E10D, L11S
VL: B2 VL
modifications: Antibody 108F8 VH sequence; Antibody 108F8 VK sequence
B4: 109A6: monoclonal anti-IL-18 antibody; VH SEQ ID NO: 13, VK SEQ ID NO: 14 (antibody, V domains shown)
VH: EVQLQQSGAELVKPGASVKLSCTASGFKIKDTYIHWVIQRPAQGLEWIGRIDPANGNTIYGSKFQGKATLTADTSSNTAYIHLSSLTSGDSAVYYCAGYVWFAYWGQGTLVTVSA
VL: DVVMTQVPLSLPVSLGDQASISCRSSQRLVHSNGNTYLHWFLQKPGQSPKLLIYTVSNRFSGVPDRFSGSGSGTDFTLKISRVEAEDLGVYFCSQSTLVPWTFGGGTKLEIK
modifications: Antibody 109A6 VH sequence; Antibody 109A6 VK sequence
B5: 131B4: monoclonal anti-IL-18 antibody; VH SEQ ID NO: 18, VK SEQ ID NO: 19 (antibody, V domains shown)
VH: B4 VH with L4V, V37L, I38K, A42E, L70I, H82Q, S91T, Y95F
VL: DAVLTQTPLSLPVSLGDQASISCTSSQSLVHSNGNTYLHWYLQKPGQSPKLLIYKVSDRFSGVPDRFSGSGSGTDFTLMITRVEAEDLGVYFCSQSSLVPWTFGGGTKLEVK
modifications: Antibody 131B4 VH sequence; Antibody 131B4 VK sequence

What follows are molecules tested against T1, IL-18 previously complexed to monoclonal antibody (assay: Luminex screening: biotinylated IL-18BP binding on IL-18 previously complexed to monoclonal antibody). Settings: Column #2.
Text: (§1) Mice were vaccinated aginst human interleukin-18 using a technology allowing immunization with properly folded proteins. Prior to immunization, genetically modified mice were selected for major histocompatibility complexes supposedly sensitive to IL-18 surface area epitopes binding IL-18BP. Following immunization, B cells were isolated from spleen and hybridized following standard hybridoma technology. Hybridoma were sorted onto microplates and then tested for expression of monoclonal anti-IL-18 antibodies targeting IL-18 epitopes included in IL-18BP binding site. The screening was performed in 3 sequential and selective steps: • First step. […] Potential antibodies targeting IL-18 on IL-18BP binding site were rescreened in competition with IL-18BP. For this, monoclonal antibodies were bound to Luminex beads carrying IL-18. The complex was then exposed to biotinylated IL-18BP in order to identify interference to previously identified anti-IL-18 antibodies (see Table 1, Column #2). […] A third screening program was undertaken with Luminex beads linked to IL-18BP and then complexed to interleukin-18, assuring the presentation of properly folded recombinant IL-18 to positive antibody candidates.
With B1 the “IL-18BP binding on IL-18 previously complexed to monoclonal antibody, Fluorescence intensity” value (“IL-18BP binding … Fluorescence intensity” below) was 1 488.
In the case of B2, the “IL-18BP binding … Fluorescence intensity” value is reported as 1 389.
With B3 the “IL-18BP binding … Fluorescence intensity” value was 1 292.
With B4 the “IL-18BP binding … Fluorescence intensity” value was 913.
For B5, the “IL-18BP binding … Fluorescence intensity” value was 1 656.

These molecules were tested against T2, human interleukin-18 (assay: Luminex screening: monoclonal antibodies binding on IL-18). Settings: IL-18 on Luminex beads.
Text: as §1
With B1 the “Monoclonal antibodies binding on IL-18, Fluorescence intensity” value (from here on “Monoclonal antibodies binding”) was 23 839.
With B2 the “Monoclonal antibodies binding” value was 26 250.
B3 was tested, and the “Monoclonal antibodies binding” value was 25 126.
For B4, the “Monoclonal antibodies binding” value was 25 848.
With B5 the “Monoclonal antibodies binding” value was 24 838.

These molecules were tested against T3, IL-18 previously complexed to IL-18BP (assay: Luminex screening: monoclonal antibody binding on IL-18 previously complexed to IL-18BP). Settings: after third screening step, mRNA sequencing and clone dilution.
Text: as §1
In the case of B1, the “Binding to IL-18 on the IL-18BP binding site” value is reported as “confirmed to bind to IL-18 on the IL-18BP binding site”.
B2 was tested, and the “Binding to IL-18 on the IL-18BP binding site” value was “confirmed to bind to IL-18 on the IL-18BP binding site”.
With B3 the “Binding to IL-18 on the IL-18BP binding site” value was “confirmed to bind to IL-18 on the IL-18BP binding site”.
For B4, the “Binding to IL-18 on the IL-18BP binding site” value was “confirmed to bind to IL-18 on the IL-18BP binding site”.
For B5, the “Binding to IL-18 on the IL-18BP binding site” value was “confirmed to bind to IL-18 on the IL-18BP binding site”.
